Data on 3 molecules can be found in patent US20140295452A1 (PIERRE FABRE MEDICAMENT, published 2014).

The target of assay [1] is recombinant human c-Met-Fc protein (R&D Systems, cat. 358MT) (human) (UniProt P08581). Description: displacement of [125I]-HGF (200 pM) from c-Met-Fc immobilized on protein A FlashPlate.
Assay [2] addresses T1, recombinant human c-Met-Fc protein (R&D Systems, cat. 358MT) (human, UniProt P08581 25-932).
T1 construct: extracellular domain; Bought reagent (R&D Systems 358MT / 358-MT/CF); also called rh c-Met-Fc; HGF-R/Fc chimera protein; not shown: Fc part; polyhistidine tag implied by capture on an anti-polyhistidine Mab; not described
The assay is described as above.

Assay [3] addresses T1, recombinant human c-Met-Fc protein (R&D …). Description: Biacore, c-Met-Fc captured by anti-polyhistidine Mab, 224D10 injected second at 20 µg/ml.
For assay [4], the target named is T2, human c-Met receptor, native, on tumor cells and tumor tissue (human, UniProt P08581 25-1390).
T2 construct: whole, on cells; Endogenous c-Met of human tumor cell lines, U87-MG xenografts and human tumor tissues; also called native c-Met; native receptor on tumor cells
The assay can be described thus: IHC on paraffin-embedded human breast and stomach tumor tissues.

T1 sequence (P08581 25-932): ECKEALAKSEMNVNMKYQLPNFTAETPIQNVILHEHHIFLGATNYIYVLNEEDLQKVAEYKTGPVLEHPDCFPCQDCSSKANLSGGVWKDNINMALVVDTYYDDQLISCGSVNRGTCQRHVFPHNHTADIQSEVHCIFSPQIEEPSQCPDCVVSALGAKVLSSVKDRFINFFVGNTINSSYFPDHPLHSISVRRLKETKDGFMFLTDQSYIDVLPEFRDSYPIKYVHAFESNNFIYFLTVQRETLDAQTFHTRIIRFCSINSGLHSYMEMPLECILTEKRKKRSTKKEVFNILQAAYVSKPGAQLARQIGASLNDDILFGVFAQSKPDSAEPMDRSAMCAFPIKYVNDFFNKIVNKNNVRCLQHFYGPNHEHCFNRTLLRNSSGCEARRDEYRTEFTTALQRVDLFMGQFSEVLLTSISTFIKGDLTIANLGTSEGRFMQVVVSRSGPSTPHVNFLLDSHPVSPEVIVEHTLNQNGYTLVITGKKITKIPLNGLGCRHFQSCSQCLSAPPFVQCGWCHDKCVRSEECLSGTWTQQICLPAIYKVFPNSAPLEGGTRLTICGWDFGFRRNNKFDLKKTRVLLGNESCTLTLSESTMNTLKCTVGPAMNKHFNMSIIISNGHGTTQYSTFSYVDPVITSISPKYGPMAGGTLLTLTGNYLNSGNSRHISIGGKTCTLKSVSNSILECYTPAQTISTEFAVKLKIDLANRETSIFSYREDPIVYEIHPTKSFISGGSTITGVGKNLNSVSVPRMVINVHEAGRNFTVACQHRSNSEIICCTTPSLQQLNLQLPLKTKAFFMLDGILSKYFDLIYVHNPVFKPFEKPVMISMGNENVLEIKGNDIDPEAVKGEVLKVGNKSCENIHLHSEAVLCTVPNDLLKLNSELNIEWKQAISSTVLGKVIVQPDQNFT
T2 sequence (P08581 25-1390): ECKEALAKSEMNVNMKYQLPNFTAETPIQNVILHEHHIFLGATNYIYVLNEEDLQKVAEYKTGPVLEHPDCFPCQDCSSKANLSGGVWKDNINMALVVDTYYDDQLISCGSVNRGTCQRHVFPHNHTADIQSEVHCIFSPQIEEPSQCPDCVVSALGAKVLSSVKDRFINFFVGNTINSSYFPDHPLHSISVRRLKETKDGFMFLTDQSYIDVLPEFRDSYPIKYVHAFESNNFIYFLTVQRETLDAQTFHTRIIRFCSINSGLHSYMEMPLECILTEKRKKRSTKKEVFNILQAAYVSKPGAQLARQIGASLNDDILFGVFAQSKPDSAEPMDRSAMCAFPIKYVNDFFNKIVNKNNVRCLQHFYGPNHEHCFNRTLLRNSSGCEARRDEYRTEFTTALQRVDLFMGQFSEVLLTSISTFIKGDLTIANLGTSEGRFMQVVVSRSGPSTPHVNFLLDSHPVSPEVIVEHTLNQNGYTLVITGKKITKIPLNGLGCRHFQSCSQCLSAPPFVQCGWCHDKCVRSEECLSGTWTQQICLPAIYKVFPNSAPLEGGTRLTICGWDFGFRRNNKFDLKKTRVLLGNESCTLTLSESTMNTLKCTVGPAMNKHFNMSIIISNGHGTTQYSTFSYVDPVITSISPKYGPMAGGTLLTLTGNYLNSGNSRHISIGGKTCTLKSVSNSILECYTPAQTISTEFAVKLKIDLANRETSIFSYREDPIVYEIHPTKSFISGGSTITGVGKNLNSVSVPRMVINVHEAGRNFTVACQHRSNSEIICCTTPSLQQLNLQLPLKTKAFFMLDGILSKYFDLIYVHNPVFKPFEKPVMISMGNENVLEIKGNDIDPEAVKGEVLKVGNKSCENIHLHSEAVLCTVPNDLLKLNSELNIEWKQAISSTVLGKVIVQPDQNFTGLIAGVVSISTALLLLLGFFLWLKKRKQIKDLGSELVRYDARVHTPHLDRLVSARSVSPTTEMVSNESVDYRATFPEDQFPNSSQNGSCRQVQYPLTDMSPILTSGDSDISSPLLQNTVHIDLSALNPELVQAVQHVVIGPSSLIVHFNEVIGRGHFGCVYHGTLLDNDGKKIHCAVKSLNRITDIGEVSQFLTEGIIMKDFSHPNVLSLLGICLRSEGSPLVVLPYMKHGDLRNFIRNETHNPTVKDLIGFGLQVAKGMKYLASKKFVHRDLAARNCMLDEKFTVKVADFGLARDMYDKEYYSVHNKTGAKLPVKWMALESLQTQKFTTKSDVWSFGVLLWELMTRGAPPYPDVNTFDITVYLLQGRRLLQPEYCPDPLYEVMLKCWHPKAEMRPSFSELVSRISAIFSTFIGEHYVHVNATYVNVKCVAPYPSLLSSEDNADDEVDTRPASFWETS
Sequence of recombinant human c-Met-Fc protein (R&D Systems, cat. 358MT) (human) (P08581 25-932): as the sequence (P08581 25-932) above

Consider “5D5 anti-c-Met Mab (Genentech, hybridoma at the ATCC) (antibody)”, for which the IC50 in assay [1] stood at 4.4 nM.

B1: 11E1 anti-c-Met Mab (antibody, V domains shown)
VH: QVQLQQSGAELAKPGASVKMSCKASGYTFTSYWMNWVKQRPGQGLEWIGYINPTTGSTDYNQKLKDKATLTADKSSNTAYMQLSSLTSEDSAVYYCAIGGYGSWFAYWGQGTLVTVSA
VL: QIVLTQSPAIMSASPGEKVTLTCSASSSVSSTYLYWYQQKPGSSPKLWIYTTSILASGVPARFSGSGSGTSYSLTISSMETEDAASYFCHQWSSYPFTFGSGTKLDIK
Regarding B1, in assay [2], the IC50 was 42 nM.

B2: murine 224D10 monoclonal antibody (antibody, V domains shown)
VH: DLQLQESGPGLVKPSQSLSLTCSVTGYSITSAYFWSWIRQFPGNKLEWMGFINYDGTNNYNPSLKNRISITRDTSKNQFFLRLNSVTTDDTATYYCTRDRTFAYWGQGTLVTVSA
VL: DIVLTQSPATLSVTPGDRVSLSCRASQRIYNYLHWYQQKSHESPRLLIKYASQSISGIPSRFSGSGSGTDFILTINSVETEDFGMYFCQQSNSWPLTFGAGTKLELR
notes: Whole murine monoclonal antibody secreted by hybridoma CNCM I-3949; a murine IgG1 (9G4) served as its isotype control; also called m224D10; 224D10 Mab
B2: the binding result in assay [3] and in assay [4] was “binds” each time.
